Measurements published in patent US20090075921A1, “Bone/joint disease sensitivity gene and use thereof” (Riken, priority 2004, published 2009).

Legend:
[1] = system: Smad3-specific gene transcription in NHAC; assay: SBE4-Luc reporter assay of TGF-β1-stimulated Smad3-specific gene transcription in NHAC; format: cell-based, human; conditions: asporin 40 μg/ml, TGF-β1 10 ng/ml, 24 hours
Procedure: NHAC was inoculated to a 24-well plate at 2.5×10^4 cells/well, cultured in a DMEM/F12 containing 10% FBS and penicillin/streptomycin for 24 hours, and transfected with the SBE4-Luc (Smad binding element ×4-luciferase) plasmid and the pRL-TK vector, which was used as endogenous control. 48 hours later, asporin (40 μg/ml) was added; still 12 hours later, TGF-β1 (10 ng/ml) was added; and the cells were incubated for 24 hours. The luciferase activity in the cells was measured using a PG-DUAL-SP reporter assay system (Toyo Ink).

TGF-β1 = TGF-β1 (Homo sapiens, UniProt P01137); assay: Binding assay of purified recombinant mouse asporin and TGF-β by microplate assay method; conditions: biotinylated mouse asporin, TGF-β1-coated plate, OD405
Chain of TGF-β1 (P01137 279-390 limits assumed, species assumed): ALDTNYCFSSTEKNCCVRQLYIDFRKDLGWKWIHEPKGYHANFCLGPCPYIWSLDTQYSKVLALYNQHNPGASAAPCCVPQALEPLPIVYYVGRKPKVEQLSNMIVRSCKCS
Procedure: A binding assay was performed using the method described in Example 24 with a partial modification as described below. To a Maxisorp 96-well microplate of Nunc, a 1 μg/ml TGF-β1 solution prepared with 0.05M sodium carbonate buffer (pH 9.6) was dispensed at 100 μl/well, and the microplate was coated with TGF-β1 at 4° C. overnight. The TGF-β-coated wells were blocked in 200 μl/well of Block Ace at 37° C. for 3 hours. Next, mouse asporin and biotinylated mouse asporin, diluted with Block Ace, were added to obtain a total volume of 100 μl per well, and the microplate was incubated at 4° C. overnight. The wells were washed with […] of TBST three times, after which streptavidin-alkaline phosphatase (Novagen) diluted 1000 fold with TBST was added at […], and the microplate was incubated at room temperature for 1 hour. The wells were washed with 400 μl/well of TBST five times, and then colored using an alkaline phosphatase substrate kit (BIO-RAD), and the absorbance at 405 nm was measured using Ultramark Microplate Imaging System (BIO-RAD).

ATDC5 cells = assay: bFGF-stimulated BrdU uptake in ATDC5 cells; format: cell-based, mouse; conditions: serum-free DMEM/F12, 20 hours
Procedure: When ATDC5 cells inoculated in the same manner as Example 40 became subconfluent, the cells were twice washed with serum-free DMEM/F12, serum-free DMEM/F12 was added at 1 ml/well, and the cells were cultured for 24 to 48 hours. Asporin and bFGF were added thereto, and the cells were further cultured for 20 hours, after which BrdU uptake assay was performed using Cell Proliferation ELISA, BrdU (Roche) by the protocol modified for 12-well plate assay as described below. Specifically, BrdU was added to the cells to obtain a final concentration of 1 μM, and the cells were cultured at 37° C. for 4 hours, after which the culture broth was removed by suction, and a fixative solution (FixDenat) was added at 1 ml/well, after which the plate was allowed to stand at room temperature for 30 minutes. The fixative solution was removed by suction, BrdU antibody-HRP (×1000) was added at 0.5 ml/well, and the plate was allowed to stand at room temperature for 1 hour, washed with TBST four times, a substrate solution was added at 0.3 ml/well to proceed the reaction at room temperature for 30 minutes until sufficient color development occurred. 1 M phosphoric acid was added at 0.3 ml/well to step the reaction, transferred to a 96-well plate, and OD415 was measured using a plate reader.

NHAC [2] = assay: Articular chondrocyte differentiation maintenance in redifferentiated NHAC; format: cell-based, human; conditions: 7 days, TGF-β1 40 ng/ml, asporin 20 μg/ml where added
Procedure: NHAC was redifferentiated by alginate beads culture for 2 weeks using a chondrocyte differentiation medium (CDM) manufactured by Cambrex Company according to the protocol attached. These redifferentiated cells were inoculated to a Lab-Tek II chamber slide (Nunc), a DMEM/F12 containing 5% FBS, ITS (Sigma), and TGF-β1 (40 ng/ml) was added, and the cells were allowed to maintain the degree of differentiation thereof; the effects of addition of asporin (20 μg/ml) on the cell morphology and extracellular proteoglycan accumulation were examined.

NHAC [3] = assay: MTT assay of TGF-β1-stimulated cell growth in NHAC; format: cell-based, human; conditions: TGF-β1 40 ng/ml with asporin 5 or 20 μg/ml, 5 days
Procedure: NHAC was inculated to a 12-well plate at 1×10^5 cells/well, and cultured in a DMEM/F12 containing 10% FBS supplemented with TGF-β1 (40 ng/ml) and asporin (5 or 20 μg/ml) for 5 days, after which the degree of cell growth was examined by the MTT assay method described below. Specifically, 3-(4,5-dimethyl-2-thiazolyl)-2,5-diphenyl-2H-tetrazolium bromide (MTT, Dojindo Laboratory) was dissolved in DMEM/F12 to obtain a concentration of 1 mg/ml, the solution was added to the cells after the medium was removed by suction, and the cells were cultured at 37° C. for 1 hour. Thereafter the medium containing MTT was discarded, and the cells were subjected to extraction treatment using a Lysis reagent (86% isopropanol, 40 mM hydrochloric acid, 1% SDS). This cell lysate was transferred to a 96-well plate, and the absorbance at 550 nm was measured using a microplate reader.

[4] = system: Smad2 phosphorylation in ATDC5 cells; assay: TGF-β1-stimulated Smad2 phosphorylation in ATDC5 cells (Western blotting); format: cell-based, mouse; conditions: TGF-β1 10 ng/ml, 5 minutes
Procedure: ATDC5 was inoculated to a 12-well plate, and cultured using the medium 1-2 described in Example 19 until the cells became confluent, after which the medium was exchanged with the same medium but containing 0.2% FBS; 4 hours later, asporin was added. 12 hours later, TGF-β1 (10 ng/ml) was added; 5 minutes later, the cells were lysed with the M-PER reagent (PIERCE). Using this cell extract, SDS-PAGE was performed, and according to the protocol attached to an antibody product of Cell Signaling Company, Western blotting was performed. As the primary antibodies for detection of phosphorylated Smad2 and Smad2 protein, phospho-Smad2 antibody (Cell Signaling) and rabbit anti-Smad2 (Zymed Laboratories) were used, respectively. As the secondary antibody, anti-rabbit IgG-HRP (Cell Signaling) was used.

B1: purified mouse asporin: recombinant mouse asporin expressed in Escherichia coli, refolded from insoluble fraction and purified by gel filtration (protein)
chain: DMEDTDDDDNDDDDNSLFPTKEPVNPFFPFDLFPTCPFGCQCYSRVVHCSDLGLTSVPNNIPFDTRMVDLQNNKIKEIKENDFKGLTSLYALILNNNKLTKIHPKTFLTTKKLRRLYLSHNQLSEIPLNLPKSLAELRIHDNKVKKIQKDTFKGMNALHVLEMSANPLENNGIEPGAFEGVTVFHIRIAEAKLTSIPKGLPPTLLELHLDFNKISTVELEDLKRYRELQRLGLGNNRITDIENGTFANIPRVREIHLEHNKLKKIPSGLQELKYLQIIFLHYNSIAKVGVNDFCPTVPKMKKSLYSAISLFNNPMKYWEIQPATFRCVLGRMSVQLGNVGK
modifications: left off: small tags and cut ends
**Q.** With B1 as the molecule, how does the “TGF-β1-stimulated elevation of luciferase activity (SBE4-Luc)” value [1] read?
**A.** significantly suppressed

**Q.** And the “binding to TGF-β1 (microplate)” value (TGF-β1)?
**A.** bound to TGF-β1 concentration-dependently and specifically

**Q.** And the “BrdU uptake in the absence of bFGF” value (ATDC5 cells)?
**A.** did not change BrdU uptake

**Q.** And the “BrdU uptake in the presence of bFGF” value (ATDC5 cells)?
**A.** further enhance the increase in BrdU uptake

**Q.** What about the “Safranine-O stainability (extracellular proteoglycan)” value (NHAC [2]) of the same molecule?
**A.** decreased

**Q.** And the cell morphology (NHAC [2])?
**A.** fibroblast-like morphology

**Q.** What about the “cell growth of NHAC (MTT, absorbance at 550 nm)” value (NHAC [3]) of the same molecule?
**A.** suppressed concentration-dependently

**Q.** And the “Smad2 phosphorylation by TGF-β1 stimulation” value [4]?
**A.** suppressed the Smad2 phosphorylation by TGF-β1 (10 ng/ml) stimulation concentration-dependently
